According to patent publication US20110129488A1, “IMMUNOTHERAPY COMPOSITIONS FOR THE TREATMENT AND PREVENTION OF AMYLOIDOSIS” (MEDIVET PHARMA, S.L., priority 2008, published 2011):
Where no end group is shown, it is not given here.

Columns and labels:
[1] = biological target: T1, canine Abeta 1-40 peptide (Canis lupus familiaris, UniProt Q28280); test: Anti-Abeta IgG titration (ELISA) of serum from immunized dogs; format: in vivo, dog
T1 construct: made in house; host or cells: chemical synthesis (Fmoc solid phase), no expression host
T1 sequence (Q28280 7-46): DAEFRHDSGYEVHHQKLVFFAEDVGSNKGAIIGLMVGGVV
Experimental: To validate the immunogenicity of the peptide according to the present invention, dogs were immunized with the synthesized Abeta 28-40 peptide (SEQ ID NO 3) and antibody generation was assessed in serum samples by ELISA. To do that, the peptide fragment was administered conjugated with KLH and mixed with 1 mg Alum (Sigma, St. Louis, Mo., U.S.A.), an adjuvant of general veterinary use. The immunogenicity of the Abeta28-40 peptide was compared versus pre-immune serum according to standard titration of the immune products generated.
Male and female dogs of various breeds, sex and ages certified by their medical records from the veterinary hospital Ars Veterinaria of Barcelona, Spain, were used in this study. In all cases, pet owners formally informed approved the treatment of their dogs. All animals were treated according to European legislation on animal experimentation (86/609/EU), and procedures were approved by the Ethical Committee of the University of Barcelona. All efforts were made to minimize animal suffering and to use no more than the number of animals needed for reliable scientific data.
Dogs were subcutaneously immunized with either: a) 100 μg per animal of SEQ ID NO 3 conjugated with KLH and 1 mg Alum used as adjuvant (n=2) or b) 100 μg per animal of KLH and 1 mg Alum (no peptide n=2). […]

[2] = biological target: T1, canine Abeta 1-40 peptide; test: ELISA titration of affinity-purified antibodies from rabbit serum; format: binding, dog
Description: Antibody purification was made by affinity chromatography in columns of 4B Sepharose activated with BrCN (GE healthcare 15gr) according to standard procedures. Synthetic Abeta1-40 peptide (SEQ ID NO 1) was linked to the BrCN and used as antigen for the affinity purification of antibodies. Anti-Abeta28-40 antibodies were purified from rabbit serum samples presenting the highest level of titers, i.e. serum samples collected on day 31 after immunization (example 2). The same was true for serum samples used for purification of anti-Abeta 1-40 antibodies. Purified antibodies were firstly eluted with an acid solution of 100 mM glycine in PBS (pH 2.5) and, then with a basic solution of 100 mM glycine and 4 M urea in PBS (pH 9)
The purified antibodies were quantified by ELISA on 96-well plates developed by the biotin-avidin-peroxidase method. Plate sensitization was made overnight at 4° C. with […] of canine Abeta 1-40 peptide diluted in 50 mM NaHCO3 pH 9.6. The ELISA procedure was then carried out as explained in example 2.

[3] = biological target: Abeta 1-40 peptide (Canis lupus familiaris, UniProt Q28280); test: Anti-Abeta IgG titration (ELISA) of serum from immunized rabbits; format: in vivo, rabbit
Sequence of Abeta 1-40 peptide (Q28280 7-46 limits assumed): as the sequence (Q28280 7-46) above
Experimental: To design a veterinary vaccine composition that generates a high level of high affinity antibodies with cross reactivity to the soluble Abeta 1-40 peptide and the plaques in the CNS of dogs with CDS, the relative immunogeneicity of the synthesized sequences of example 1 were characterized separately. To do that, SEQ ID NO 1 and SEQ ID NO 3 were administered conjugated with KLH and mixed with 1 mg of Alum (Sigma, St Louis, U.S.A.) an adjuvant of general veterinary use. The relative immunogenicity of the two peptide sequences was compared according to standard titration of the immune products generated.
Experiments were performed in adult female New Zealand White rabbits weighing between 1.5-2 kg at the beginning of the study. They were kept on a 12 h light/12 h dark cycle and housed with free access to food and water. All animals were manipulated according to the European legislation (86/609/EEC) for animal handling and experimentation. Procedures were approved by the Ethic Committee of the Universitat de Barcelona, under supervision of the Generalitat de Catalunya; all efforts were made to minimize animal suffering and to use only the number of animals necessary to produce reliable scientific data.
Rabbits were subcutaneously immunized with 100 μg of peptide from either: a) SEQ ID NO 3 conjugated with KLH and 1 mg Alum used as adjuvant (n=2); b) SEQ ID NO 1 conjugated with KLH and 1 mg Alum used as adjuvant (n=2); or c) KLH and 1 mg Alum (no peptide n=2). The immunization protocol consisted of a dose subcutaneously delivered up to six sites near the back of the neck, and repeated at days 11, 21, 31 and 41.
Samples of serum were collected from each rabbit at days 0, 21, 31 and 51. Each time, 5 ml blood samples were collected from the ear marginal vein in plastic tubes with no additive. At day 71 rabbits were anaesthetized and exanguinated. Blood samples were then kept at room temperature (RT) for 30 min, afterwards they were centrifuged for 10 min at 3000 rpm. Supernatants were collected as serum samples, aliquoted and stored at −80° C.
Titration of serum samples to detect the presence of antibodies that had been raised by SEQ ID NO 1 and SEQ ID NO 3 was performed by Enzime-Linked Immunosorbent Assays (ELISA) on 96-well plates developed by the biotin-avidin-peroxidase method. Plate sensitization was made overnight at 4° C. with 2 μg/ml of Abeta 1-40 peptide diluted in 50 mM NaHCO3, pH 9.6. […] After washing, specific binding was detected by incubation with Biotin conjugated anti-Rabbit IgG antibody (Sigma, St. Louis, Mo., U.S.A) diluted 1/20000 in TBS for 1 hour at RT. […] Plates were densitometrically analyzed at 450 nm with a Tecan Sunrise Absorbance Reader apparatus (Tecan Iberica, Madrid, Spain). […]

[4] = test system: Aβ 1-40 and Aβ 1-42, diffuse plaque; conditions: aged beagles (8.4-12.4 years) immunized for 2.4 years; several cortical regions; cited from earlier work
[5] = test system: aged beagles; conditions: aged beagles (8.4-12.4 years) immunized for 2.4 years; cited from earlier work

Row | Substance | specific production of anti-Abeta antibodies in serum samples ([1]; 100 μg per animal conjugated with KLH + 1 mg Alum s.c., repeated days 31, 61, 75, day 30 after first immunization) | day of highest values of optic density ([1]; peptide-KLH + Alum s.c., serum days 0, 30, 60, 74, 90) | titers of anti-Abeta antibodies in the basic elution ([2]; basic elution (100 mM glycine, 4 M urea, pH 9), slightly lower than the acid elution) | titers of specific antibodies against canine Abeta1-40 in purified sera ([2]; day 31 serum of immunized rabbits, affinity purified on Abeta1-40 column) | serum dilution that presents half of the maximal binding (B1/2) ([3]; 100 μg peptide s.c. conjugated with KLH + 1 mg Alum, repeated days 11, 21, 31, 41, serum of day 31) | immunogenic response compared with SEQ ID NO 1 ([3]; comparison of B1/2 dilutions of day 31) | specific production of antibodies in serum samples ([3]; peptide-KLH + Alum s.c., from day 21 following the first immunization) | day of highest levels of immunization ([3]; peptide-KLH + Alum s.c., serum days 0, 21, 31, 51) | extent of diffuse plaque accumulation [4] | levels of soluble and insoluble Aβ 1-40 and Aβ 1-42 [4] | measures of learning, spatial attention, or spatial memory [5]
1 | KGAIIGLMVGGVV (also: KLH conjugate) [SEQ ID NO 3, canine Abeta protein amino acids 28 to 40; tested conjugated with KLH plus Alum] | detected | 74 days | high titers | High titers | 1/611 | higher immunogenic response | detected | 31 days |  |  | 
2 | fibrillar Aβ (1-42): fibrillar Aβ (1-42) formulated with aluminum salt (Alum), Head et al. 2008 |  |  |  |  |  |  |  |  | significantly decreased | significantly decreased | no improvement
